The values below come from patent publication US20260365692A1, “COMPOSITIONS COMPRISING PROTEINS DISSOLVED IN FLUORINATED SOLVENTS, AND METHODS OF MAKING AND USING THE SAME” (priority 2022, published 2026).

A short description of data set [1]: β-Gal activity after hydrochloric acid exposure. The conditions noted are these: β-Gal in PFOc. The class given is physicochemical. How it is done:
FIGS. 54A-54C depict the relative activity of the β-Gal protein dispersed in PBS or PFOc solvents without and with contamination by (FIG. 54A) proteinase K, (FIG. 54B) bleach or (FIG. 54C) hydrochloric acid. Data shown as average±s.d. of n=3 technical replicates. Statistical significance between conditions is indicated by a line using unpaired Student's t-test with n.s.=not significant, * p<0.05, ** p<0.01, and *** p<0.001.
Here, stock of lyophilized β-Gal was prepared then dispersed in PBS or PFOc. A small volumetric quantity (1% v/v) of 10% bleach was added to the protein samples. Immediately, an equal volume of PBS containing 4 mg/mL ONPG substrate was added to the sample and incubated for 5 minutes to allow for complete substrate conversion. Last, absorbance was taken at 420 nm on the eluted samples, and relative activity was calculated by normalizing absorbance of converted ONPG in oxidizer-treated samples against their corresponding untreated group. […] Here, stock of lyophilized B-Gal was prepared then dispersed in PBS or PFOc. A small volumetric quantity (4% v/v) of 0.1 M HCl was added to the protein samples. After 30 seconds incubation, PBS containing 4 mg/mL ONPG was added to each of the samples to elute and start substrate conversion. After 3-minute conversion, the eluted samples were retrieved, and absorbance was read at 420 nm. […]

The target of data set [2] is T1, BSA (Bos taurus, UniProt P02769). Kind of data set: Surface plasmon resonance, BSA. The class given is binding, bovine. The conditions noted are these: after reference correction. From the text:
FIGS. 14A-14L depict circular dichroism spectra of Hb (FIG. 14A), GFP (FIG. 14B), BSA (FIG. 14C), β-Gal (FIG. 14D), rabbit serum IgG (FIG. 14E), transferrin (FIG. 14F), and urease (FIG. 14G) in the absence (black line) or presence (dashed lines) of PFNA. Increasing dash sequence indicated higher concentration of PFNA. FIG. 14H: Change in molar ellipticity at 216 nm (Δθ216) of PFNA-treated proteins, relative to native controls, as a function of increasing ligand concentration. FIG. 14I: Percentage change in secondary structural motifs of Hb, β-Gal and IgG between the native protein and 1 mM PFNA treated samples. β-sheet structures were further differentiated into parallel and antiparallel conformations. Hb, β-Gal and IgG were prioritized for analysis based on their significant spectral shift in the presence of 1 mM PFNA. FIGS. 14J-14L: Sensograms for BSA (FIG. 14J), β-gal (FIG. 14K), and IgG (FIG. 14L) showing relative response (R.U.) at 10, 25, 50, 75, and 100 μM.
To test this assertion, PFNA binding to three exemplary proteins, BSA, β-Gal and IgG, was studied via isothermal titration calorimetry (ITC) and surface plasmon resonance (SPR) techniques. […] SPR analysis yielded similar results, with sensorgrams (FIGS. 14J-14L) that diverged from a simple 1:1 ligand-protein model. […]
For orientation: Surface plasmon resonance follows binding to a sensor surface in real time, without labels.

Data set [3] deals with T1, BSA. Kind of data set: FTIR of BSA eluted from PFOc into PBS. Details: species or system bovine. The conditions noted are these: dispersed BSA extracted from PFOc into PBS. How it is done:
FIG. 47 depicts stacked FTIR spectra of PD-7, BSA and the PD-7:BSA complex after elution into PBS.
To test this assertion, Fourier transform infrared (FTIR) spectroscopy was performed on BSA samples following extraction of the PD-7 dispersed protein from PFOc into a physiologic buffer. Selected model protein BSA was diluted to […], and PFNA was diluted to 2 mM in PBS. The intermolecular interactions were initiated by adding an equal amount of BSA and PFNA samples into a centrifuge tube. After 1-hour incubation, samples were frozen at −80 °C, and lyophilize overnight to remove water. FTIR spectrometry was then performed on powdered samples using LN-MCT detector (4000-800 cm-1, backward output). Data is represented by average+−SD of wavenumber among replicates depicting corresponding characteristic bonds. An equal volume of PBS was added to the BSA:PD-7 sample in PFOc, and vortexing the phase separated mixture for ~2 seconds.

T1 sequence (P02769 25-607): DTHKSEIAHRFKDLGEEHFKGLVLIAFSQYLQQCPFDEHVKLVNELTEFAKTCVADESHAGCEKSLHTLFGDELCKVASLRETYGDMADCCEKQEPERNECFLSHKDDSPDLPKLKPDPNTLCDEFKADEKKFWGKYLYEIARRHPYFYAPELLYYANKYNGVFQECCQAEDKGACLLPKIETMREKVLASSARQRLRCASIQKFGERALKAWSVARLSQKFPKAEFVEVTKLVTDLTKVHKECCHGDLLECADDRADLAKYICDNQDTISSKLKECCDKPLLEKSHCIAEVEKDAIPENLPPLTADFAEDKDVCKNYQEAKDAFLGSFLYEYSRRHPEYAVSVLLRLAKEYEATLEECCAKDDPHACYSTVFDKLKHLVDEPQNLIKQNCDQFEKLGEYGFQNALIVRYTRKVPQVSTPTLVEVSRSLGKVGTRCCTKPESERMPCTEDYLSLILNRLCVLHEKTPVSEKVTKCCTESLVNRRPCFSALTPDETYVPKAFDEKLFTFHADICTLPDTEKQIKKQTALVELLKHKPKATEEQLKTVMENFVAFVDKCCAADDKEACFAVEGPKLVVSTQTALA

As to “β-Gal: β-Galactosidase (β-Gal), dissolved in PBS/saline or dispersed in PFOc”, the “β-Gal activity versus PBS controls” value in data set [1] (HCl) is on record as “statistically higher than that of PBS controls”. The same compound returned a loss in functionality in data set [1] (HCl (4% v/v of 0.1 M), few minutes) not below 50%.

For `O=C(O)C(F)(F)C(F)(F)C(F)(F)C(F)(F)C(F)(F)C(F)(F)C(F)(F)C(F)(F)F` [Compound 7, perfluoronanonic acid], the SPR response result in data set [2] was “negative responses”. Moreover, the “dispersant spectral feature after extraction into physiologic buffer/PBS” value in data set [3] is given as “showed the presence of C—F stretching vibrations (1500-1000 cm-1)”.
